# Measurements from article PMC9481538, “The interaction between LC8 and LCA5 reveals a novel oligomerization function of LC8 in the ciliary-centrosome system” (Scientific Reports, 2022).
# B1: sLCA5-WT: truncated LCA5 96–430 fused to an N-terminal MBP tag (protein)
# chain: DTDLVTKRILSARLLKINELQNEVSELQVKLAELLKENKSLKRLQYRQEKALNKFEDAENEISQLIFRHNNEITALKERLRKSQEKERATEKRVKDTESELFRTKFSLQKLKEISEARHLPERDDLAKKLVSAELKLDDTERRIKELSKNLELSTNSFQRQLLAERKRAYEAHDENKVLQKEVQRLYHKLKEKERELDIKNIYSNRLPKSSPNKEKELALRKNAACQSDFADLCTKGVQTMEDFKPEEYPLTPETIMCYENKWEEPGHLTLDLQSQKQDRHGEAGILNPIMEREEKFVTDEELHVVKQEVEKLEDEWEREELDKKQKEKASLLER
# modifications: left off: MBP, N-terminal, kept | His6, C-terminal, kept
# notes: truncated LCA5 96–430 fused to an N-terminal MBP tag
# What was measured:
# [1] = molecular target: T1, LC8 (Homo sapiens, UniProt Q96FJ2); assay: isothermal titration calorimetry, sLCA5 fragments titrated with LC8; type: binding; conditions: ITC, PBS pH 7.4, 1 mM TCEP, 37 °C; MBP-fused sLCA5 titrated with LC8
# T1 construct: 6xHis (N); made in house; host or cells: E. coli BL21 (DE3) Rosetta
# Experimental: LC8 and MBP-fused LCA5 constructs were prepared in PBS supplemented with 1 mM TCEP. Before measurement, protein samples were dialyzed overnight in PBS pH 7.4 (Orange Scientific, OrDial D14 membrane). Peptides were diluted from stock with the buffer used for dialysis. The concentration of samples was determined based on absorbance at 280 nm in the case of proteins, and 205 nm for the peptide. Experiments were performed using MicroCal PEAQ-ITC (Malvern Panalytical), LCA5 peptides were measured at 25 °C, proteins were analyzed at 37 °C. Lebercilin peptide was injected into the cell 18 times 2 μl volumes, with 5 min timing between injections. In case of the protein, LCA5 was placed in the sample cell, and LC8 was injected during 37 injections, 1 μl each. The results were evaluated using MicroCal PEAQ-ITC Analysis Software.
# [2] = system: GST-fused LC8; assay: GST pull-down of LC8 and sLCA5; type: binding; conditions: GST-LC8 bait, MBP-, 6x-His-fused sLCA5 prey, PBS, 1 mM DTT, room temperature; result in words
# Experimental: For the pull-down experiments, GST-fused LC8 was used as bait, and MBP-, 6x-His-fused LCA5 variants as prey. For controls, GST and MBP were used. Proteins were expressed in 100 ml cultures of E. coli BL21 (DE3) Rosetta cells as described above. Cells were harvested, resuspended in 5 ml PBS supplemented with 1 mg/ml lysozyme and 1 mM DTT, sonicated and clarified by centrifugation. 20 μl of Glutathione Sepharose 4B (Macherey–Nagel) (75%) resin was used for each experiment. Baits were incubated with the resin for 1 h at room temperature, then washed with PBS supplemented with 1 mM DTT. Prey proteins were added and incubated for one hour. The beads were washed and eluted by boiling in a 2 × SDS sample buffer and analyzed in tricine SDS page according to the protocol of Schagger et al[43].
# [3] = CD thermal denaturation; type: physicochemical; conditions: CD at 222 nm, 10–80 °C
# Experimental: (§1) CD experiments were carried out on a Jasco J-810 spectropolarimeter using a 1 mm quartz cuvette. For the spectra of the individual constructs, 8 scans were recorded and averaged between 200 nm or 190 nm and 260 nm (in continuous scanning mode, data pitch: 0.2 nm, scanning speed: 50 nm/min, response: 2 s, bandwidth: 2 nm). sLCA5-WT and the mutants were measured at 0.1 mg/ml concentration. 1.2 μM LCA5 and 6 μM LC8 were complexed and analyzed. The spectra of LC8 at a concentration of 6 μM was recorded under the same experimental conditions as described before and subtracted from the individual CD spectra of the sLCA5-LC8 complexes. The baseline subtracted data were evaluated using the BeStSel web-server (http://bestsel.elte.hu/index.php)[46],[47]. Thermal denaturation experiments were recorded at 222 nm between 10 and 80 °C using 1 °C/min heating rate. The thermal denaturation profile was fitted according to the Gibbs–Helmholtz equation assuming a two-state model as described by Shih et al[48]. After fitting, the curves were normalized by the following equation. y=-m^∘-An-T∗mn/Ad-An+md-mnT-1 where y is the ratio of native and unfolded state, An and Ad are the initial values of the Gibbs–Helmholtz equation belong to the native and denatured state, mn and md are the slopes belong to the An and Ad values, m° is the measured CD value in millidegree and T is the temperature in °C.
# [4] = CD spectroscopy, helical content; type: physicochemical
# Experimental: as §1, with “°C. […]” for “°C.”
# [5] = analytical gel filtration; type: physicochemical
# Experimental: For analytical gel filtration a Superose 6 Increase 10/300 (Cytiva) was used with an effective resolution between 5–5000 kDa range and a void volume above 5000 kDa. The column was equilibrated in DPBS supplemented with 200 μM TCEP. The calibration curve was fitted on the chromatogram of gel filtration standard mix (BioRad) with the addition of Dextran Blue to determine the void volume. 100 μl of LCA5 purified protein or LCA5-LC8 complex was injected at the concentration of 30 μM for LCA5 and 150 μM for LC8, with a flow rate of 500 μl/min immediately or after 60 min of incubation at 37 °C. For densitometric analysis, fractions were collected and 200 μl of samples were precipitated in 1.8 ml 96% ethanol at − 80 °C for 2 h. The samples were centrifugated for 30 min at 14,000 g, and dissolved in 15 μl of SDS sample buffer. 10 μl of each sample was run on Tricine-SDS gel. The calibration of the densitometry was performed on samples of known molar ratio of sLCA5 construct and LC8 (see the original gel used for calibration on Suplementary Fig. S16). Data evaluation was performed by using Origin 8 software and Fiji ImageJ software.
# [6] = negative staining transmission electron microscopy of sLCA5-LC8 complexes; type: physicochemical
# Experimental: For TEM negative staining experiments, a JEOL JEM-1011 (JEOL Ltd., Tokyo, Japan) electron microscope was used. The purified LCA5-LC8 complexes or LC8 or LCA5 forms alone were put together by using LCA5-WT or the single or double mutants at 30 μM and LC8 at 150 μM concentration in a buffer of 20 mM Tris 70 mM NaCl, pH 7.4, and incubated at 37 °C for 1 h. The complexes were diluted to a final 0.2 mg/ml concentration in the buffer and applied to 300 mesh formvar/carbon-coated copper grids (SPI Inc., USA). After 2 min of incubation the surplus was removed by filter paper and 1% uranyl acetate was applied for 1 min as negative staining. Images were taken around the middle of the grid at 5000, 50,000, 150,000 and 300,000-fold magnification. The collected data was analyzed by Fiji ImageJ software, and the statistical analysis was carried out in Origin 8 software.
# [7] = molecular target: T1, LC8; assay: composition of complexes of LC8 binding partners (Supplementary Table S1); conditions: this paper's constructs
# Description: Number of LC8 Number of Ratio of LCA5
# LC8 binding monomeric binding monomeric LC8 in monomers to LC8
# Gene name sites partners in complex complex monomers
# Supplementary Table S1. Stoichiometries of various LC8 binding partners in complex with LC8. Known LC8 binding partners according to literature data always form dimers upon LC8 binding. The stoichiometry is basically 1:1 in case of one LC8 binding site,where 2 monomeric partners are dimerized by binding one dimeric LC8. This ratio could increase up to 1:11 in case of ASCIZ where the dimeric ASCIZ possibly could bind 11 LC8 dimers in […]
# occupied. According to our ITC and CD spectroscopy data, we proposed a very different binding model where the LCA5 forms likely […] alone and LC8 could interconnect this dimerized, moreover the possible binding sites are not fully occupied. […]
# and 1:1 ratio case of single mutant LCA5 construct where one binding site presented and in case of wild type LCA5 where 2 binding sites presented, respectively.
# T1 sequence (Q96FJ2 whole entry, the tested form may be a part): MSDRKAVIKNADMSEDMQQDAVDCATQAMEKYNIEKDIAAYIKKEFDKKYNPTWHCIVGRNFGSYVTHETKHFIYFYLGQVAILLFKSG
molecule,measurement,setting,value
B1,− TΔS,[1],3.28 kcal/mol
same,interaction with LC8 (GST pull-down),[2],can bind LC8
same,melting temperature Tm,"[3]; 1 °C/min, two-state fit, without or with LC8 as label shows","41,1 °C"
same,increase in melting temperature on LC8 binding,[3]; sLCA5 in complex with LC8 vs without,~ 5 °C
same,molar ellipticity curve upon addition of LC8,"[4]; 20 °C, LC8 in fivefold molar excess, vs sLCA5-WT without LC8, result in words",remained the same
same,helical structures preserved at higher temperatures,"[4]; CD, BeStSel, 20 vs 40 °C, in the presence of LC8, LC8 and MBP-tag subtracted",80%
same,estimated molar mass (gel filtration),"[5]; Superose 6 Increase 10/300, DPBS, 200 μM TCEP, void volume above 5000 kDa, listed as wild-type LCA5 construct",~ 610 kDa
same,void fraction (higher order oligomers),"[5]; gel filtration void volume, result in words",remarkable increase in the void volume fraction
same,increase of the difference between incubated wild type and sLCA5-ΔCQS complexes,"[5]; void fraction, prolonged incubation with LC8",~ 3.5 fold
same,stronger propensity to form higher order oligomers vs sLCA5-ΔCQS,"[5]; void volume fraction size, with LC8 in fivefold molar excess",~ 20%
same,void fraction increment on incubation,"[5]; with LC8, 60 min at 37 °C vs non-incubated complex",324%
same,measured diameter median of spherical complexes,"[6]; 30 μM sLCA5 + 150 μM LC8, 37 °C 1 h, 20 mM Tris 70 mM NaCl pH 7.4",~ 39 nm
same,increase in size of complexes vs sLCA5-ΔCQS complexes,"[6]; TEM diameters with LC8, significant by two sample t-test, p = 0.05",20%
same,LC8 binding sites,[7],2
